Test results published in PMC6018924, “Brassinosteroids regulate pavement cell growth by mediating BIN2-induced microtubule stabilization” (Journal of Experimental Botany, 2018).

Columns and labels:
Test in all cases: pull-down; GST fusion bound to GST resin in 1× PBS pH 7.4, 0.1% Triton X-100, 2 h at 4 °C; incubated with purified tubulin-His 2 h at 4 °C; western blot with anti-His antibody
Details in all cases: both partners purified
TUA1–His = target: T1, TUA1–His (Arabidopsis, UniProt P11139 1-450)
T1 construct: α-tubulin TUA1 of Arabidopsis, gene cloned into pET28a; also called tubulin–His; source: E. coli (Rosetta strain), purified using Ni-NTA agarose
T1 sequence (P11139 whole entry): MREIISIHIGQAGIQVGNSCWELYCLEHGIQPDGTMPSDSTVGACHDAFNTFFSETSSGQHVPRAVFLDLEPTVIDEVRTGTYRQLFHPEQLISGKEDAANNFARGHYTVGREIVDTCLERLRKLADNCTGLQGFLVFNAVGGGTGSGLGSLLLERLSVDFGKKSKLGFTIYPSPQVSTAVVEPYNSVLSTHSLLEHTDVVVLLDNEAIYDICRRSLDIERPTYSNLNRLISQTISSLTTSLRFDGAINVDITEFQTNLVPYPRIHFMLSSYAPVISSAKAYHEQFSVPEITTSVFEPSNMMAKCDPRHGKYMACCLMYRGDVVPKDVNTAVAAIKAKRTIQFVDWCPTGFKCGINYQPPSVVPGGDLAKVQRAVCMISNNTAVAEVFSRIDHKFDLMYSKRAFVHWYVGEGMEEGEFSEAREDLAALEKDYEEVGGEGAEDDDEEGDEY

TUB8–His = target: T2, TUB8–His (Arabidopsis, UniProt P29516 1-449)
T2 construct: β-tubulin TUB8 of Arabidopsis, gene cloned into pET28a; also called tubulin–His; source: E. coli (Rosetta strain), purified using Ni-NTA agarose
T2 sequence (P29516 whole entry): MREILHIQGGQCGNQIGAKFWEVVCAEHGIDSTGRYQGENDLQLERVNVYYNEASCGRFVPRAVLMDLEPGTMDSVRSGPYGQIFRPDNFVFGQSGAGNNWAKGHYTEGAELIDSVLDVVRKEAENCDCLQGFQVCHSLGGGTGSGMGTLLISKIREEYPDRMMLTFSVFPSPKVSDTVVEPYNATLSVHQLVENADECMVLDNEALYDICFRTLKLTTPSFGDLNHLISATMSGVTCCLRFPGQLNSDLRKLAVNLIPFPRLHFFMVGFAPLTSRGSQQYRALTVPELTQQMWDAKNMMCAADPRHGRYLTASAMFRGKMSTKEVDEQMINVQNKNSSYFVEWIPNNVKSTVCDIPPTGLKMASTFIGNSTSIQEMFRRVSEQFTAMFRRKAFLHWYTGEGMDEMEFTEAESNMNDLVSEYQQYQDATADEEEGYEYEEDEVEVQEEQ

TUB6–His = target: T3, TUB6–His (Arabidopsis, UniProt P29514 1-449)
T3 construct: β-tubulin TUB6 of Arabidopsis, gene cloned into pET28a; also called tubulin–His; source: E. coli (Rosetta strain), purified using Ni-NTA agarose
T3 sequence (P29514 whole entry): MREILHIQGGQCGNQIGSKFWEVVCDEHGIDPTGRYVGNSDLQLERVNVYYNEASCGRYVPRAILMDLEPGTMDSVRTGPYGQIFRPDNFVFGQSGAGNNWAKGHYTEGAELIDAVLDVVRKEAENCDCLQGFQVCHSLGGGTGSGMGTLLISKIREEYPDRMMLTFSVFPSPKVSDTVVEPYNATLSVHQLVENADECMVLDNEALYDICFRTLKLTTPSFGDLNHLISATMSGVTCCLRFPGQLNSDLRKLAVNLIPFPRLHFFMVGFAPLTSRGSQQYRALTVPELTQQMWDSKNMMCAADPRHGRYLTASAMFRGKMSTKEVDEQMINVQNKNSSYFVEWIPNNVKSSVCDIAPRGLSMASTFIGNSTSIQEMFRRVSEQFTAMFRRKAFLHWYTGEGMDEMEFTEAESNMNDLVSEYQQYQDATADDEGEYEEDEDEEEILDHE

TUB3–His = target: T4, TUB3–His (Arabidopsis, UniProt Q9ASR0 1-450)
T4 construct: β-tubulin TUB3 of Arabidopsis, gene cloned into pET28a; also called tubulin–His; source: E. coli (Rosetta strain), purified using Ni-NTA agarose
T4 sequence (Q9ASR0 whole entry): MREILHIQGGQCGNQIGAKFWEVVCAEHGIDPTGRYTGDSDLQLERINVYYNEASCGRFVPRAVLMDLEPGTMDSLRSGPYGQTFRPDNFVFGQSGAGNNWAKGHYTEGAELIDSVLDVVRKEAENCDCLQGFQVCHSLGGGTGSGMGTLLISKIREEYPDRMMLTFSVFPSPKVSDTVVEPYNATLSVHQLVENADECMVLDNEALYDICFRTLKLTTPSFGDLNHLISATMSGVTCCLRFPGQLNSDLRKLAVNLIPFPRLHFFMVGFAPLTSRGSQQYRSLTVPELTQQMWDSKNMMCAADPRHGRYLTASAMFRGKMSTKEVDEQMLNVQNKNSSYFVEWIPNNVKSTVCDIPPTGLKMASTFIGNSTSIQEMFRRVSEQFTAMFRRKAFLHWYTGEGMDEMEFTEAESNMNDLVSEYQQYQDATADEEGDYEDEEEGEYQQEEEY

TUA3–His = target: T5, TUA3–His (Arabidopsis, UniProt Q56WH1 1-450)
T5 construct: α-tubulin TUA3 of Arabidopsis, gene cloned into pET28a; also called tubulin–His; source: E. coli (Rosetta strain), purified using Ni-NTA agarose
T5 sequence (Q56WH1 whole entry): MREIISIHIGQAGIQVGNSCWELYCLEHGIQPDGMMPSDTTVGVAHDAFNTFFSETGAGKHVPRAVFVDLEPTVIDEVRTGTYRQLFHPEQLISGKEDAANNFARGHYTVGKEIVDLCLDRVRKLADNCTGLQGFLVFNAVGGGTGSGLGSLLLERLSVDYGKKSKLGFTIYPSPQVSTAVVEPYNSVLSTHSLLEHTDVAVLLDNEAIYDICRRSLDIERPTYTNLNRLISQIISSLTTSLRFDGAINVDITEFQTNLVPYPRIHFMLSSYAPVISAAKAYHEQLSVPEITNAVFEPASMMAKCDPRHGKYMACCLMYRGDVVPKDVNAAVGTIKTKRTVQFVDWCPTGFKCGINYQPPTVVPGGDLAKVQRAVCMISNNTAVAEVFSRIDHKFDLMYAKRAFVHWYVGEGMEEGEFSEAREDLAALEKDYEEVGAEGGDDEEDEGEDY

TUB7–His = target: T6, TUB7–His (Arabidopsis, UniProt P29515 1-449)
T6 construct: β-tubulin TUB7 of Arabidopsis, gene cloned into pET28a; also called tubulin–His; source: E. coli (Rosetta strain), purified using Ni-NTA agarose
T6 sequence (P29515 whole entry): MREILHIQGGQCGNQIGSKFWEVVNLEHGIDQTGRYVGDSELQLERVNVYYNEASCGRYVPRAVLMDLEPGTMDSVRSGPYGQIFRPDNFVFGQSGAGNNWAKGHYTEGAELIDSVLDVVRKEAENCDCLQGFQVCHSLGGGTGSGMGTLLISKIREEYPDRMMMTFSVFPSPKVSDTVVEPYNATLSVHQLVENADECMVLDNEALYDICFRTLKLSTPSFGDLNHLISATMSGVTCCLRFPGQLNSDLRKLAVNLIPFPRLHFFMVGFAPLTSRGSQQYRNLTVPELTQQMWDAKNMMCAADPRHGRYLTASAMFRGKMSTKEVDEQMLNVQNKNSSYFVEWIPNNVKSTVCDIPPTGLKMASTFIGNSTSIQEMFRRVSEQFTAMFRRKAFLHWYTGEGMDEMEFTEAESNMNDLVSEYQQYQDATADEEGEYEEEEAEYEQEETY

TUB4–His = target: T7, TUB4–His (Arabidopsis, UniProt P24636 1-444)
T7 construct: β-tubulin TUB4 of Arabidopsis, gene cloned into pET28a; also called tubulin–His; source: E. coli (Rosetta strain), purified using Ni-NTA agarose
T7 sequence (P24636 whole entry): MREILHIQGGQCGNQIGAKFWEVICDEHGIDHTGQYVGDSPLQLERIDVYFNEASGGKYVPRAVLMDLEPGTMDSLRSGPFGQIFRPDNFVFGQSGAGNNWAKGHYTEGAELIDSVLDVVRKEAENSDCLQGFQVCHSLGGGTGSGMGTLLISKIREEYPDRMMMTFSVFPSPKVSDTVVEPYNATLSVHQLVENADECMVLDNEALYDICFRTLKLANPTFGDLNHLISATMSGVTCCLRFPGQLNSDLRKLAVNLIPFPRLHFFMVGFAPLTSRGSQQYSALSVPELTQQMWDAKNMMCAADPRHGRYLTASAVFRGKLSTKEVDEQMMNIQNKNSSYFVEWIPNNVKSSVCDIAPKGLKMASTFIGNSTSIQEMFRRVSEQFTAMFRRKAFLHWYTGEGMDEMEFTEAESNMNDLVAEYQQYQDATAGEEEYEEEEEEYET

TUA5–His = target: T8, TUA5–His (Arabidopsis, UniProt B9DHQ0 1-450)
T8 construct: α-tubulin TUA5 of Arabidopsis, gene cloned into pET28a; also called tubulin–His; source: E. coli (Rosetta strain), purified using Ni-NTA agarose
T8 sequence (B9DHQ0 whole entry): as the sequence (Q56WH1 whole entry) above

binding result (TUA1–His): binds
binding result (TUB8–His): binds
binding result (TUB6–His): binds
binding result (TUB3–His): binds
binding result (TUA3–His): binds
binding result (TUB7–His): binds
binding result (TUB4–His): binds
binding result (TUA5–His): binds
B1: GST–BIN2 (BRASSINOSTEROID …2) (enzyme, Arabidopsis, UniProt Q39011 1-380, looked up)
chain: MADDKEMPAAVVDGHDQVTGHIISTTIGGKNGEPKQTISYMAERVVGTGSFGIVFQAKCLETGETVAIKKVLQDRRYKNRELQLMRVMDHPNVVCLKHCFFSTTSKDELFLNLVMEYVPESLYRVLKHYSSANQRMPLVYVKLYMYQIFRGLAYIHNVAGVCHRDLKPQNLLVDPLTHQVKICDFGSAKQLVKGEANISYICSRFYRAPELIFGATEYTTSIDIWSAGCVLAELLLGQPLFPGENAVDQLVEIIKVLGTPTREEIRCMNPHYTDFRFPQIKAHPWHKIFHKRMPPEAIDFASRLLQYSPSLRCTALEACAHPFFDELREPNARLPNGRPFPPLFNFKQEVAGSSPELVNKLIPDHIKRQLGLSFLNQSGT
notes: BRASSINOSTEROID …2 (BIN2), GSK3-like kinase of Arabidopsis, 380 aa; also called BIN2–GST; source: E. coli (Rosetta strain), purified using glutathione resin
